These results are taken from PMC10923862.

For assay [1], the target named is HexaPro spike without foldon (SARS-CoV-2 (Wuhan-Hu-1)) (UniProt P0DTC2). Description: SEC. In general terms: Size exclusion chromatography separates by hydrodynamic size, large species first.
Assay [2] addresses HexaPro, soluble SARS-CoV-2 spike ectodomain carrying a foldon domain (SARS-CoV-2 (Wuhan-Hu-1) | not stated) (UniProt P0DTC2). Description: SEC.
Assay [3] has the same target. The experiment in a line: SEC-MALS.
The target of assay [4] is S-3P, soluble SARS-CoV-2 spike ectodomain with C-terminal foldon trimerization domain (SARS-CoV-2 (Wuhan-Hu-1) | not stated) (UniProt P0DTC2). The experiment in a line: SEC.
Assay [5] has the same target. Description: SEC-MALS.
Assay [6] has as its target S-locked, soluble SARS-CoV-2 spike ectodomain with the disulfide 413C-987C that locks the RBD in the closed conformation, without heterologous trimerization domain (SARS-CoV-2 (Wuhan-Hu-1)) (UniProt P0DTC2). The experiment in a line: SEC-MALS.

A word on the stoichiometry N: it is a count of units in the complex or per binding partner. Turning to “HexaPro spike without foldon (from UniProt P0DTC2 14-1208)”, the stoichiometry N in assay [1] stood at 3. Consider “HexaPro, soluble SARS-CoV-2 spike ectodomain carrying a foldon domain (from UniProt P0DTC2 14-1208)”, for which the stoichiometry N in assay [2] and in assay [3] was 3 in each case. Consider “S-3P, soluble SARS-CoV-2 spike ectodomain with C-terminal foldon trimerization domain (from UniProt P0DTC2 14-1208)”, for which the stoichiometry N in assay [4] and in assay [5] was 3 throughout. Substance “S-locked, soluble SARS-CoV-2 spike ectodomain with the disulfide 413C-987C that locks the RBD in the closed conformation, without heterologous trimerization domain (from UniProt P0DTC2 14-1208)” registered a stoichiometry N in assay [6] of 3.
